The results in this text go back to article PMC7610980.

Some results are limits rather than exact numbers.

This experiment has as its target bat RaTG13 spike (S) glycoprotein ectodomain (bat coronavirus RaTG13). As to the kind of experiment: BLI. (BLI is a label-free optical method that tracks binding on a fibre tip over time.)

Sequence of human ACE2 ectodomain (residues 19-615) (Q9BYF1 19-615): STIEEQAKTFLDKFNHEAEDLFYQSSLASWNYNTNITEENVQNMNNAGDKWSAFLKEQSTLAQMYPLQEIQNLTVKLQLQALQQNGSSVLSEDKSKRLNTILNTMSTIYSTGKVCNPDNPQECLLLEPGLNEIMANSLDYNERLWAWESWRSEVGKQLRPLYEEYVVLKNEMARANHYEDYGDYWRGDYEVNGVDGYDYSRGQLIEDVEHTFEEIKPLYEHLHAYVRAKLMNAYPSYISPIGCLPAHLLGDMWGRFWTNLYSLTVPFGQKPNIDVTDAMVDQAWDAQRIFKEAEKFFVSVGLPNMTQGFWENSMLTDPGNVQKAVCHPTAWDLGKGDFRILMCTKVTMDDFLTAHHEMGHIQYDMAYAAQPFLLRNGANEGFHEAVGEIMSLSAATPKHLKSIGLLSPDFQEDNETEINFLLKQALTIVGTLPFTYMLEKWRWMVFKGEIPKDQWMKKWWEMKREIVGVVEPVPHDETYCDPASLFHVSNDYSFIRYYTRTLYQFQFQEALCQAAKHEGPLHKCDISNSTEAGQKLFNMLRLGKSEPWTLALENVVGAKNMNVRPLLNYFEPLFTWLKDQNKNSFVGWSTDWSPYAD

One may read the Kd as the free concentration of one partner at which half of the binding sites on the other are occupied at equilibrium, for simple one-to-one binding. A higher Kd goes with weaker binding. On to “human ACE2 ectodomain (residues 19-615) (from UniProt Q9BYF1-1 19-615) (receptor)”, for which the Kd was more than 40 µM.
